Test results: patent US20230140293A1

Key:
Assay in all cases: cell-based or functional assay
[1] = target: CH0505TF Env, pseudotyped virus produced in 293S GnTI- cells (HIV-1)
[2] = target: CH0505TF G458D Env, pseudotyped virus produced in 293S GnTI- cells (HIV-1)
[3] = target: CH0505TF G458E Env, pseudotyped virus produced in 293S GnTI- cells (HIV-1)
[4] = target: CH0505TF.gly3.461 Env, Env-pseudotyped virus produced in 293T cells (HIV-1)
[5] = target: CH0505TF.gly4.G458Y Env, pseudotyped virus produced in 293T cells (HIV-1)
[6] = target: CH0505TF G458W Env, pseudotyped virus produced in 293S GnTI- cells (HIV-1)
[7] = target: CH0505.w4.3 Env, Env-pseudotyped virus produced in 293T cells (HIV-1)
[8] = target: CH0505TF.gly3.276 Env, Env-pseudotyped virus produced in 293T cells (HIV-1)
[9] = target: CH0505TF G458Y.N280D Env, pseudotyped virus produced in 293S GnTI- cells (HIV-1)
[10] = target: CH0505TF G458S Env, pseudotyped virus produced in 293S GnTI- cells (HIV-1)
[11] = target: CH0505TF.gly4 Env, Env-pseudotyped virus produced in 293T cells (HIV-1)
[12] = target: CH0505TF Env, Env-pseudotyped virus produced in 293T cells (HIV-1)
[13] = target: CH0505TF.G458Y Env, Env-pseudotyped virus produced in 293T cells (HIV-1)
[14] = target: CH0505TF G458F Env, pseudotyped virus produced in 293S GnTI- cells (HIV-1)
[15] = target: CH0505TF.gly3.461 Env, pseudotyped virus produced in 293S GnTI- cells (HIV-1)
[16] = target: CH0505TF.gly4.G458Y Env, pseudotyped virus produced in 293S GnTI- cells (HIV-1)
[17] = target: CH0505TF G458R Env, pseudotyped virus produced in 293S GnTI- cells (HIV-1)
[18] = target: CH0505TF.G458Y Env, pseudotyped virus produced in 293S GnTI- cells (HIV-1)
[19] = target: CH0505TF.gly4 Env, pseudotyped virus produced in 293S GnTI- cells (HIV-1)
[20] = target: CH0505TF G458C Env, pseudotyped virus produced in 293S GnTI- cells (HIV-1)
[21] = target: HIV-1 Env 426c.TM4 (S278R.G471S.N460D.N463D), Env-pseudotyped virus produced in 293S GnTI- cells (Man5-enriched) (HIV-1 clade C strain 426c)
[22] = target: CH0505TF G458L Env, pseudotyped virus produced in 293S GnTI- cells (HIV-1)
[23] = target: HIV-1 Env 426c.TM4 (S278R.G471S.N460D.N463D), Env-pseudotyped virus produced in 293T cells (HIV-1 clade C strain 426c)
[24] = target: HIV-1 Env 426c, Env-pseudotyped virus produced in 293T cells (HIV-1 clade C strain 426c)
[25] = target: CH0505TF.gly3.197 Env, pseudotyped virus produced in 293S GnTI- cells (HIV-1)
[26] = target: HIV-1 Env 426c.TM (N276D.N460D.N463D), Env-pseudotyped virus produced in 293T cells (HIV-1 clade C strain 426c)
[27] = target: CH0505TF.gly3.276 Env, pseudotyped virus produced in 293S GnTI- cells (HIV-1)
[28] = target: CH0505.w4.3 Env, pseudotyped virus produced in 293S GnTI- cells (HIV-1)
[29] = target: HIV-1 Env 426c.TM (N276D.N460D.N463D), Env-pseudotyped virus produced in 293S GnTI- cells (Man5-enriched) (HIV-1 clade C strain 426c)
[30] = target: CH0505TF.gly3.197 Env, Env-pseudotyped virus produced in 293T cells (HIV-1)
[31] = target: CH0505TF G458K Env, pseudotyped virus produced in 293S GnTI- cells (HIV-1)
[32] = target: HIV-1 CH0505TF.S365P Env on Env-pseudotyped virus produced in 293T cells (HIV-1)
[33] = target: HIV-1 CH0505TF.N280D Env on Env-pseudotyped virus produced in 293T cells (HIV-1)
[34] = target: HIV-1 CH0505TF.G458Y Env on Env-pseudotyped virus produced in 293T cells (HIV-1)
[35] = target: HIV-1 CH0505TF (CH505 transmitted/founder) Env on Env-pseudotyped virus produced in 293T cells (HIV-1)
[36] = target: HIV-1 426c.SM (N276D) Env on Env-pseudotyped virus produced in 293T cells (HIV-1)
[37] = target: HIV-1 426c.SM (N276D) Env on Env-pseudotyped virus produced in 293s/GnTI-/- cells (Man5-enrichment) (HIV-1)
[38] = target: HIV-1 CH0505TF.gly3.197 Env on Env-pseudotyped virus produced in 293S/GnTI-/- cells (Man5-enrichment) (HIV-1)
[39] = target: HIV-1 426c.TM (N276D/N460D/N463D) Env on Env-pseudotyped virus produced in 293s/GnTI-/- cells (Man5-enrichment) (HIV-1)
[40] = target: HIV-1 CH0505TF.gly4 Env on Env-pseudotyped virus produced in 293S/GnTI-/- cells (Man5-enrichment) (HIV-1)
[41] = target: HIV-1 Env 426c, Env-pseudotyped virus produced in 293S GnTI- cells (Man5-enriched) (HIV-1 clade C strain 426c)
[42] = target: HIV-1 CH0505TF Env on Env-pseudotyped virus produced in 293S/GnTI-/- cells (Man5-enrichment) (HIV-1)
[43] = target: HIV-1 CH0505TF.gly3.197 Env on Env-pseudotyped virus produced in 293T cells (HIV-1)
[44] = target: HIV-1 426c.DM (N460D/N463D) Env on Env-pseudotyped virus produced in 293s/GnTI-/- cells (Man5-enrichment) (HIV-1)
[45] = target: HIV-1 Env 426c.SM (N276D), Env-pseudotyped virus produced in 293T cells (HIV-1 clade C strain 426c)
[46] = target: HIV-1 Env 426c.SM (N276D), Env-pseudotyped virus produced in 293S GnTI- cells (Man5-enriched) (HIV-1 clade C strain 426c)
[47] = target: HIV-1 426c.TM (N276D/N460D/N463D) Env on Env-pseudotyped virus produced in 293T cells (HIV-1)
[48] = target: HIV-1 CH0505TF.gly4 Env on Env-pseudotyped virus produced in 293T cells (HIV-1)
[49] = target: HIV-1 clade C strain 426c Env on Env-pseudotyped virus produced in 293T cells (HIV-1)
[50] = target: HIV-1 Env 426c.DM (N460D.N463D), Env-pseudotyped virus produced in 293T cells (HIV-1 clade C strain 426c)
[51] = target: HIV-1 clade C strain 426c Env on Env-pseudotyped virus produced in 293s/GnTI-/- cells (Man5-enrichment) (HIV-1)
[52] = target: HIV-1 426c.DM (N460D/N463D) Env on Env-pseudotyped virus produced in 293T cells (HIV-1)
[53] = target: HIV-1 Env 426c.DM (N460D.N463D), Env-pseudotyped virus produced in 293S GnTI- cells (Man5-enriched) (HIV-1 clade C strain 426c)
[54] = target: HIV-1 CH0505TF (CH505 transmitted/founder) Env on Env-pseudotyped virus produced in 293T cells (HIV-1); remark: listed apart in the source

## CH235 UCA2 (antibody)
[1]
  IC50 (µg/ml) in TZM-bl: > 50 µg/mL
[2]
  IC50 (µg/ml) in TZM-bl cells: > 10 µg/mL
[3]
  IC50 (µg/ml) in TZM-bl cells: > 10 µg/mL
[4]
  IC50 (µg/ml) in TZM-bl: > 50 µg/mL
[5]
  IC50 (µg/ml) in TZM-bl cells: > 10 µg/mL
[6]
  IC50 (µg/ml) in TZM-bl cells: 1.07 µg/mL
[7]
  IC50 (µg/ml) in TZM-bl: > 25 µg/mL
[8]
  IC50 (µg/ml) in TZM-bl: > 50 µg/mL
[9]
  IC50 (µg/ml) in TZM-bl cells: > 10 µg/mL
[10]
  IC50 (µg/ml) in TZM-bl cells: > 10 µg/mL
[11]
  IC50 (µg/ml) in TZM-bl: > 50 µg/mL
[12]
  IC50 (µg/ml) in TZM-bl: > 50 µg/mL
[13]
  IC50 (µg/ml) in TZM-bl: > 25 µg/mL
[14]
  IC50 (µg/ml) in TZM-bl cells: 0.746 µg/mL
[15]
  IC50 (µg/ml) in TZM-bl: > 50 µg/mL
[16]
  IC50 (µg/ml) in TZM-bl cells: > 10 µg/mL
[17]
  IC50 (µg/ml) in TZM-bl cells: 0.916 µg/mL
[18]
  IC50 (µg/ml) in TZM-bl: 0.16 µg/mL
  IC50 (µg/ml) in TZM-bl cells: 0.2 µg/mL
[19]
  IC50 (µg/ml) in TZM-bl: > 50 µg/mL
[20]
  IC50 (µg/ml) in TZM-bl cells: 0.391 µg/mL
[21]
  IC50 (µg/ml) in TZM-bl: > 25 µg/mL
[22]
  IC50 (µg/ml) in TZM-bl cells: 0.555 µg/mL
[23]
  IC50 (µg/ml) in TZM-bl: > 25 µg/mL
[24]
  IC50 (µg/ml) in TZM-bl: > 50 µg/mL
[25]
  IC50 (µg/ml) in TZM-bl: > 50 µg/mL
[26]
  IC50 (µg/ml) in TZM-bl: > 50 µg/mL
[27]
  IC50 (µg/ml) in TZM-bl: > 50 µg/mL
[28]
  IC50 (µg/ml) in TZM-bl: > 25 µg/mL
[29]
  IC50 (µg/ml) in TZM-bl: > 50 µg/mL
[30]
  IC50 (µg/ml) in TZM-bl: > 50 µg/mL
[31]
  IC50 (µg/ml) in TZM-bl cells: > 10 µg/mL

## VRC01 (antibody)
[32]
  IC50 (µg/ml) in TZM-bl: 0.1 µg/mL
[33]
  IC50 (µg/ml) in TZM-bl: > 25 µg/mL
[34]
  IC50 (µg/ml) in TZM-bl: > 25 µg/mL
[35]
  IC50 (µg/ml) in TZM-bl: 0.1 µg/mL
[1]
  IC50 (µg/ml) in TZM-bl: 0.03 µg/mL
[36]
  ID50/IC50 in TZM-bl: 0.39 µg/mL
[37]
  ID50/IC50 in TZM-bl: 0.04 µg/mL
[38]
  IC50 (ug/ml) in TZM-bl cells: 0.009 µg/mL
[39]
  ID50/IC50 in TZM-bl: 0.015 µg/mL
[40]
  IC50 (ug/ml) in TZM-bl cells: 0.001 µg/mL
[4]
  IC50 (µg/ml) in TZM-bl: 1.98 µg/mL
[7]
  IC50 (µg/ml) in TZM-bl: 0.05 µg/mL
[41]
  IC50 (µg/ml) in TZM-bl: 0.19 µg/mL
[8]
  IC50 (µg/ml) in TZM-bl: 0.004 µg/mL
[42]
  IC50 (ug/ml) in TZM-bl cells: 0.03 µg/mL
[43]
  IC50 (ug/ml) in TZM-bl cells: 0.023 µg/mL
[44]
  ID50/IC50 in TZM-bl: 0.04 µg/mL
[11]
  IC50 (µg/ml) in TZM-bl: 0.002 µg/mL
[45]
  IC50 (µg/ml) in TZM-bl: 0.39 µg/mL
[12]
  IC50 (µg/ml) in TZM-bl: 0.1 µg/mL
[46]
  IC50 (µg/ml) in TZM-bl: 0.04 µg/mL
[47]
  ID50/IC50 in TZM-bl: 0.03 µg/mL
[48]
  IC50 (ug/ml) in TZM-bl cells: 0.002 µg/mL
[13]
  IC50 (µg/ml) in TZM-bl: > 25 µg/mL
[49]
  ID50/IC50 in TZM-bl: 2.2 µg/mL
[50]
  IC50 (µg/ml) in TZM-bl: 0.41 µg/mL
[51]
  ID50/IC50 in TZM-bl: 0.19 µg/mL
[15]
  IC50 (µg/ml) in TZM-bl: 0.015 µg/mL
[52]
  ID50/IC50 in TZM-bl: 0.41 µg/mL
[53]
  IC50 (µg/ml) in TZM-bl: 0.04 µg/mL
[18]
  IC50 (µg/ml) in TZM-bl: 0.91 µg/mL
[19]
  IC50 (µg/ml) in TZM-bl: 0.001 µg/mL
[21]
  IC50 (µg/ml) in TZM-bl: 0.007 µg/mL
[23]
  IC50 (µg/ml) in TZM-bl: 0.002 µg/mL
[24]
  IC50 (µg/ml) in TZM-bl: 2.2 µg/mL
[25]
  IC50 (µg/ml) in TZM-bl: 0.009 µg/mL
[26]
  IC50 (µg/ml) in TZM-bl: 0.03 µg/mL
[27]
  IC50 (µg/ml) in TZM-bl: 0.003 µg/mL
[29]
  IC50 (µg/ml) in TZM-bl: 0.015 µg/mL
[30]
  IC50 (µg/ml) in TZM-bl: 0.023 µg/mL
[54]
  IC50 (ug/ml) in TZM-bl cells: 0.09 µg/mL
